Measurements taken from IntAct's records for PubMed 21035448.

B1: Regulator of G-protein signaling 4 (Rattus norvegicus (Rat)), P49799 (parent)
chain: MCKGLAGLPASCLRSAKDMKHRLGFLLQKSDSCEHSSSHSKKDKVVTCQRVSQEEVKKWAESLENLINHECGLAAFKAFLKSEYSEENIDFWISCEEYKKIKSPSKLSPKAKKIYNEFISVQATKEVNLDSCTREETSRNMLEPTITCFDEAQKKIFNLMEKDSYRRFLKSRFYLDLTNPSSCGAEKQKGAKSSADCTSLVPQCA
partner: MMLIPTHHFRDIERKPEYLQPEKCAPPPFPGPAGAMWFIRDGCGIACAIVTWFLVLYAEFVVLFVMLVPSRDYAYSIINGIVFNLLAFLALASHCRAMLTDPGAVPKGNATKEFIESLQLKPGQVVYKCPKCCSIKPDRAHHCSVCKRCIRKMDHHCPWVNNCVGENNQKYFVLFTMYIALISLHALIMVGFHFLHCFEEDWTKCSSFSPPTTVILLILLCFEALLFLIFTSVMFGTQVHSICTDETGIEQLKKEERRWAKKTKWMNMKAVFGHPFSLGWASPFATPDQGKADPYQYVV

Variants of: B1
Details: with zdhc3_mouse Zdhhc3, Q8R173

Variant	effect of a mutation on the interaction
C2S	disrupting interaction
